Experiment [1] has as its target human IL-7Rα expressed on non-T cells (CD3- cells, monocytes) (human) (UniProt P16871). In words: cell-based or functional assay.
Experiment [2] has as its target T1, hIL-7R (Example 11) (human) (UniProt P16871).
T1 sequence: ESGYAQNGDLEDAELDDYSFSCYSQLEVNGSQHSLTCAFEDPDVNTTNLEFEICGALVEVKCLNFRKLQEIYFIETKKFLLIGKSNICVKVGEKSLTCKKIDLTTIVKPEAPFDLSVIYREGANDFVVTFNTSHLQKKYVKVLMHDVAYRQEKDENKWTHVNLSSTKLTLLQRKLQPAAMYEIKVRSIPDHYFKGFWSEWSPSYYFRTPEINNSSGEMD
In words: SPR (Biacore), ratio KD of parent 18B1 to KD of variant.

Experiment [3] addresses T1, hIL-7R (Example 11) (human). Briefly: NGS enrichment ratio of the mutation in the scFv library selected at 0.2 nM hIL-7R.
The target is the same in experiment [4]. In words: SPR at 37C.
Experiment [5] has the same target. Briefly: NGS enrichment ratio, parental scFv, reference of the normalisation [cont'd].

As a reminder, the Kd is a measure of binding affinity in units of concentration. One may read the koff as a measure of how fast the partners let go of each other. A low value points to a long-lived complex. One may read the kon as the second-order rate constant of association. A higher kon goes with faster complex formation.

B1: Anti-IL-7R Antibody (Antibody A) (antibody, human IgG1, kappa, V domains shown)
VH: EVQLVESGGGLVQPGRSLRLSCAASGFTFDDHAMHWVRQAPGKGLEWVSGISWNSRGIGYADSVKGRFTIFRDNAKNSLYLQMNSLRAEDTALYYCAKDEYSRGYYVLDVWGQGTTVTVSS
VL: AIQLTQSPSSLSASVGDRVTITCRASQGISSALAWYQQKPGKAPKLLIYDASSLESGVPSRFSGSGSGTDFTLTISSLQPEDFATYYCQQFNSYPLWITFGQGTRLEIKR
On to B1, for which, in experiment [1], the MCP1 Production IC50, purified monocytes, TSLP turned out to be 24 nM.

B2: 18B1 LC L95aA (antibody, V domains shown)
VH: EVQLVESGGGLVQPGRSLRLSCAASGFTFDDHAMHWVRQAPGKGLEWVSGISWNSRGIGYADSVKGRFTIFRDNAKNSLYLQMNSLRAEDTALYYCAKDEYSRGYYVLDVWGQGTTVTVSS
VL: AIQLTQSPSSLSASVGDRVTITCRASQGISSALAWYQQKPGKAPKLLIYDASSLESGVPSRFSGSGSGTDFTLTISSLQPEDFATYYCQQFNSYPAWITFGQGTRLEIKR
For the molecule B2, the KD Relative to 18B1 in experiment [2] was 0.01. In experiment [3], the 0.2 nM NGS stood at 0.01.

B3: 18B1 LC Y94A (antibody, human IgG1, kappa, V domains shown)
VH: EVQLVESGGGLVQPGRSLRLSCAASGFTFDDHAMHWVRQAPGKGLEWVSGISWNSRGIGYADSVKGRFTIFRDNAKNSLYLQMNSLRAEDTALYYCAKDEYSRGYYVLDVWGQGTTVTVSS
VL: AIQLTQSPSSLSASVGDRVTITCRASQGISSALAWYQQKPGKAPKLLIYDASSLESGVPSRFSGSGSGTDFTLTISSLQPEDFATYYCQQFNSAPLWITFGQGTRLEIKR
B3: in experiment [2], the KD Relative to 18B1 was 0.01. Further, in experiment [3], the 0.2 nM NGS is 0.01.

B4: 18B1 scFv (scFv, V domains shown, not shown: small tags and cut ends)
VH: EVQLVESGGGLVQPGRSLRLSCAASGFTFDDHAMHWVRQAPGKGLEWVSGISWNSRGIGYADSVKGRFTIFRDNAKNSLYLQMNSLRAEDTALYYCAKDEYSRGYYVLDVWGQGTTVTVSS
VL: AIQLTQSPSSLSASVGDRVTITCRASQGISSALAWYQQKPGKAPKLLIYDASSLESGVPSRFSGSGSGTDFTLTISSLQPEDFATYYCQQFNSYPLWITFGQGTRLEIK
modifications: linker; domain order unknown
In the case of B4, in experiment [4], the dissociation constant (Kd) is 1.3 nM, the koff was 0.000403 s⁻¹ and the kon is 311000 M⁻¹ s⁻¹. The 0.2 nM NGS in experiment [5] is 1.

For the origin of these results see US20220017627A1.
